B1: C-terminal cargo-binding segment of human Pex5p (residues 315-639) (domain or fragment)
chain: not shown
notes: Peroxisomal import receptor Pex5p, human, residues 315-639 (seven TPR segments and C-terminal helical bundle); In the functional rows the receptor was the endogenous Pex5p of human fibroblasts; this molecule stands for it; also called Pex5p(C); Pex5p receptor; source: E. coli BL21(DE3) RIL, purified (Ni-NTA, TEV cleavage, second Ni-NTA, gel filtration); not shown: His6, N-terminal, cleaved; GST, …
B2: human alanine-glyoxylate aminotransferase (AGT), wild type, major allele haplotype (enzyme, UniProt P21549 1-392, looked up)
chain: MASHKLLVTPPKALLKPLSIPNQLLLGPGPSNLPPRIMAAGGLQMIGSMSKDMYQIMDEIKEGIQYVFQTRNPLTLVISGSGHCALEAALVNVLEPGDSFLVGANGIWGQRAVDIGERIGARVHPMTKDPGGHYTLQEVEEGLAQHKPVLLFLTHGESSTGVLQPLDGFGELCHRYKCLLLVDSVASLGGTPLYMDRQGIDILYSGSQKALNAPPGTSLISFSDKAKKKMYSRKTKPFSFYLDIKWLANFWGCDDQPRMYHHTIPVISLYSLRESLALIAEQGLENSWRQHREAAAYLHGRLQALGLQLFVKDPALRLPTVTTVAVPAGYDWRDIVSYVIDHFDIEIMGGLGPSTGKVLRIGLLGCNATRENVDRVTEALRAALQHCPKKKL
modifications: pyridoxal-5'-phosphate (PLP) covalently bound to Lys209
notes: Alanine-glyoxylate aminotransferase (AGT, EC 2.6.1.44), human, major allele haplotype; C-terminus at Leu392; called the complete protein; 86 kDa homodimer; In the import assay in fibroblasts the protein was EGFP-tagged (pEGFP-C1 derived); the functional row uses this molecule; also called AGT(wt); wt-EGFP-AGT (in the import assay); source: E. coli BL21(DE3) RIL, purified (Ni-NTA, TEV cleavage, …)

What was measured:
[1] = target: B2; test: SEC-MALS; analytical gel filtration and static light scattering (MiniDAWN); complex formed by mixing purified Pex5p(C) and AGT; single components also run; conditions: both partners purified
[2] = target: B2; test: ITC; conditions: both partners purified
[3] = target: B2; test: ITC; conditions: both partners purified; remark: listed apart in the source
[4] = target: the molecule itself; test: SEC-MALS; analytical gel filtration and static light scattering (MiniDAWN); complex formed by mixing purified Pex5p(C) and AGT; single components also run

Row | Binder | stoichiometry N [1] | Kd [2] | stoichiometry N [3] | stoichiometry N [4]
1 | B1 | 1 Pex5p(C) per AGT chain | 3.5 ± 0.4 µM | 1 | 
2 | B2 |  |  |  | 2

— article PMC3328432 (PLoS Biology, 2012)
